Reference: PMC8303963, “Action of Multiple Rice β-Glucosidases on Abscisic Acid Glucose Ester” (International Journal of Molecular Sciences, 2021)

Substrate: CC1=CC(=O)CC(C)(C)[C@@]1(O)/C=C/C(C)=C\C(=O)O[C@@H]1O[C@H](CO)[C@@H](O)[C@H](O)[C@H]1O
Experiment: glucose release by peroxidase/glucose oxidase assay, Michaelis-Menten fit
Assay type: biochemical, Oryza sativa
Conditions: 50 mM sodium acetate pH 5, 30 °C
From the text: glucose release by peroxidase/glucose oxidase assay, Michaelis-Menten fit on Os4BGlu12

B1: Os4BGlu12 (Oryza sativa Japonica Group) (protein)
chain: AYNGAGEPPVSRRSFPKGFIFGTASSSYQYEGGAAEGGRGPSIWDTFTHQHPEKIADRSNGDVASDSYHLYKEDVRLMKDMGMDAYRFSISWTRILPNGSLRGGVNKEGIKYYNNLINELLSKGVQPFITLFHWDSPQALEDKYNGFLSPNIINDFKDYAEICFKEFGDRVKNWITFNEPWTFCSNGYATGLFAPGRCSPWEKGNCSVGDSGREPYTACHHQLLAHAETVRLYKAKYQALQKGKIGITLVSHWFVPFSRSKSNDDAAKRAIDFMFGWFMDPLIRGDYPLSMRGLVGNRLPQFTKEQSKLVKGAFDFIGLNYYTANYADNLPPSNGLNNSYTTDSRANLTGVRNGIPIGPQAASPWLYVYPQGFRDLLLYVKENYGNPTVYITENGVDEFNNKTLPLQEALKDDARIEYYHKHLLSLLSAIRDGANVKGYFAWSLLDNFEWSNGYTVRFGINFVDYNDGRKRYPKNSAHWFKKFLLK
notes: recombinant from E. coli, IMAC purified; N-terminal thioredoxin and His6 tags cut off with enterokinase
  Km: 10.9 ± 0.9 mM
  kcat: 7.5 ± 0.0002 s⁻¹
  kcat/Km: 689 M⁻¹ s⁻¹
